We go through 1 molecule from paper PMC13123425, “A mutant complement factor H (W1183R) enhances proteolytic cleavage of von Willebrand factor by ADAMTS-13 under shear” (Journal of thrombosis and haemostasis : JTH, 2025).

The assay addresses purified human recombinant von Willebrand factor (multimeric) (human, UniProt P04275 764-2813). Description: cell-based or functional assay.

B1: human recombinant W1183R complement factor H (natural protein, UniProt P08603 19-1231, looked up)
chain: EDCNELPPRRNTEILTGSWSDQTYPEGTQAIYKCRPGYRSLGNVIMVCRKGEWVALNPLRKCQKRPCGHPGDTPFGTFTLTGGNVFEYGVKAVYTCNEGYQLLGEINYRECDTDGWTNDIPICEVVKCLPVTAPENGKIVSSAMEPDREYHFGQAVRFVCNSGYKIEGDEEMHCSDDGFWSKEKPKCVEISCKSPDVINGSPISQKIIYKENERFQYKCNMGYEYSERGDAVCTESGWRPLPSCEEKSCDNPYIPNGDYSPLRIKHRTGDEITYQCRNGFYPATRGNTAKCTSTGWIPAPRCTLKPCDYPDIKHGGLYHENMRRPYFPVAVGKYYSYYCDEHFETPSGSYWDHIHCTQDGWSPAVPCLRKCYFPYLENGYNQNYGRKFVQGKSIDVACHPGYALPKAQTTVTCMENGWSPTPRCIRVKTCSKSSIDIENGFISESQYTYALKEKAKYQCKLGYVTADGETSGSITCGKDGWSAQPTCIKSCDIPVFMNARTKNDFTWFKLNDTLDYECHDGYESNTGSTTGSIVCGYNGWSDLPICYERECELPKIDVHLVPDRKKDQYKVGEVLKFSCKPGFTIVGPNSVQCYHFGLSPDLPICKEQVQSCGPPPELLNGNVKEKTKEEYGHSEVVEYYCNPRFLMKGPNKIQCVDGEWTTLPVCIVEESTCGDIPELEHGWAQLSSPPYYYGDSVEFNCSESFTMIGHRSITCIHGVWTQLPQCVAIDKLKKCKSSNLIILEEHLKNKKEFDHNSNIRYRCRGKEGWIHTVCINGRWDPEVNCSMAQIQLCPPPPQIPNSHNMTTTLNYRDGEKVSVLCQENYLIQEGEEITCKDGRWQSIPLCVEKIPCSQPPQIEHGTINSSRSSQESYAHGTKLSYTCEGGFRISEENETTCYMGKWSSPPQCEGLPCKSPPEISHGVVAHMSDSYQYGEEVTYKCFEGFGIDGPAIAKCLGEKWSHPPSCIKTDCLSLPSFENAIPMGEKKDVYKAGEQVTYTCATYYKMDGASNVTCINSRWTGRPTCRDTSCVNPPTVQNAYIVSRQMSKYPSGERVRYQCRSPYEMFGDEEVMCLNGNWTEPPQCKDSTGKCGPPPPIDNGDITSFPLSVYAPASSVEYQCQNLYQLEGNKRITCRNGQWSEPPKCLHPCVISREIMENYNIALRRTAKQKLYSRTGESVEFVCKRGYRLSSRSHTLRTTCWDGKLEYPTCAKR
With B1, the “cleavage product (~350 kD band) of multimeric VWF by recombinant ADAMTS-13 under vortexing-induced shear, with 0–2 μM W1183R-CFH” value is around 2 fold.
